Test results as given in patent US20170106051A1 (BAYLOR RESEARCH INSTITUTE, published 2017).

T1: human DCIR (human, UniProt Q9UMR7 1-237)
T1 construct: whole, on cells; The assay was on primary human blood DCs
T1 sequence (looked up): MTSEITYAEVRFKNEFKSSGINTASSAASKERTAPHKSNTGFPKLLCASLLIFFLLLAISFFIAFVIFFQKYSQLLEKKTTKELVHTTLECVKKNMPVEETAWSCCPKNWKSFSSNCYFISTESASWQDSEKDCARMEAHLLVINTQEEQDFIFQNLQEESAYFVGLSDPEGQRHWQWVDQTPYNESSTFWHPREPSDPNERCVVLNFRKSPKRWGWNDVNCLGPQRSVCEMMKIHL

B1: mAnti-DCIR_9E8_H-LV-hIgG4H-C-Flex-v1-hIL-10 antibody (antibody)
heavy: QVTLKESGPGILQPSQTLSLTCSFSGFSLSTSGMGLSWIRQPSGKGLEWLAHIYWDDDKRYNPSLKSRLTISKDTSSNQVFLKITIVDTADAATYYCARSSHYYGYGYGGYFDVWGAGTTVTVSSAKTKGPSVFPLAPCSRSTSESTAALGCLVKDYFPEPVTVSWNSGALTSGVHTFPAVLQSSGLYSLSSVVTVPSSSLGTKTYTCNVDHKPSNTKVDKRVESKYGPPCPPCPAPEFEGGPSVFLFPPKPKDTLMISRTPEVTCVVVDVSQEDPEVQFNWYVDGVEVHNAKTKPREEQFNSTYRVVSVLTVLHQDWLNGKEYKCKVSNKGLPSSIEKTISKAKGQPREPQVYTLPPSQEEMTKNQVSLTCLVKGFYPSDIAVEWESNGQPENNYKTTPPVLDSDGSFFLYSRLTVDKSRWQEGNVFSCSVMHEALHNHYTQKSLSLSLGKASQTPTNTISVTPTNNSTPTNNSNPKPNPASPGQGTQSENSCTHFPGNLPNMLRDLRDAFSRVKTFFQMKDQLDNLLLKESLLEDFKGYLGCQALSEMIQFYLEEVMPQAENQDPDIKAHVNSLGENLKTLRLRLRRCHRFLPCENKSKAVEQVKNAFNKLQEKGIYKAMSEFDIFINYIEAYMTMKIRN
light: NIVLTQSPASLAVSLGQRATISCRASESIHSYGNSFLHWYQQKPGQPPKLLIYLASNLESGVPARFSGSGSRTDFTLTIDPVEADDAATYYCQQNNEDPWTFGGGTKLEIKRTVAAPSVFIFPPSDEQLKSGTASVVCLLNNFYPREAKVQWKVDNALQSGNSQESVTEQDSKDSTYSLSSTLTLSKADYEKHKVYACEVTHQGLSSPVTKSFNRGEC
notes: Mouse/human chimeric IgG4 kappa antibody with human IL-10 fused through a linker to the C-terminus of the heavy chain; also called anti-DCIR (9E8)-IL-10; Anti-DCIR-9E8-hIL-10
B2: manti-hCD40_24A3.3F1_H-LV-hIgG4H-C-Flex-v1-hIL-10 antibody (antibody)
heavy: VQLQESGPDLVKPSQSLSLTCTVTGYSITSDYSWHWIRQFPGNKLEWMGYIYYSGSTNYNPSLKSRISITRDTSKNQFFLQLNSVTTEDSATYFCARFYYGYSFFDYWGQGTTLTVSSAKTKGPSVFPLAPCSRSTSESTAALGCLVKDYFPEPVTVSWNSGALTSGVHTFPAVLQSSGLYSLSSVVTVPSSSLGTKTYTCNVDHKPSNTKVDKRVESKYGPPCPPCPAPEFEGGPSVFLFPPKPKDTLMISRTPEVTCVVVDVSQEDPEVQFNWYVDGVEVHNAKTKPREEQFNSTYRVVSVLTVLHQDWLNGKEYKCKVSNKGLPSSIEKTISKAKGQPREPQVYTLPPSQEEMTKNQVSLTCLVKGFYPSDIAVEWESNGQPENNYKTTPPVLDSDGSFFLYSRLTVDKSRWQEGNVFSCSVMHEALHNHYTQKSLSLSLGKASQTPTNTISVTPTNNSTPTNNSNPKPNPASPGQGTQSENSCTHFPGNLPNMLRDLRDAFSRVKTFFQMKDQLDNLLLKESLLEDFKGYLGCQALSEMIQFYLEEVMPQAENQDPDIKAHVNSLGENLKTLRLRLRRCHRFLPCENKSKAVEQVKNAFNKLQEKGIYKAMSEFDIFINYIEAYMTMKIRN
light: QIVLTQSPAFMSASPGEKVTMTCSASSSVSYMHWYQQKSGTSPKRWIYDTSKLASGVPARFSGSGSGTSYSLTISSMEAEDAATYYCQQWSSNPLTFGAGTKLEIKRTVAAPSVFIFPPSDEQLKSGTASVVCLLNNFYPREAKVQWKVDNALQSGNSQESVTEQDSKDSTYSLSSTLTLSKADYEKHKVYACEVTHQGLSSPVTKSFNRGECAS
notes: Mouse/human chimeric IgG4 kappa antibody with human IL-10 fused through a linker to the C-terminus of the heavy chain; also called anti-CD40 (24A3)-IL-10; Anti-CD40-24A3-hIL-10

Experiments:
human DCIR = target: T1, human DCIR; assay: flow cytometry on purified human blood pDCs, detection with anti-human IL-10
Procedure: (§1) The ability of antibody-IL-10 fusion proteins to bind to human DCs was measured. Both myeloid DC (mDCs) and plasmacytoid DCs (pDCs) were purified from human blood. DCs were incubated for 20 min in ice in the presence of different concentrations of recombinant fusion proteins of antibody and IL-10 (FIG. 1). After vigorous washing, DCs were further stained with anti-human IL-10 to detect surface bound antibody-IL-10 fusion proteins using flow cytometry.

human CD40 = target: T2, human CD40 (human, UniProt P25942 21-277); assay: flow cytometry on purified human blood mDCs, detection with anti-human IL-10
T2 construct: whole, on cells; The assay was on primary human blood DCs; also called hCD40
Procedure: as §1

T2 sequence (P25942 21-277): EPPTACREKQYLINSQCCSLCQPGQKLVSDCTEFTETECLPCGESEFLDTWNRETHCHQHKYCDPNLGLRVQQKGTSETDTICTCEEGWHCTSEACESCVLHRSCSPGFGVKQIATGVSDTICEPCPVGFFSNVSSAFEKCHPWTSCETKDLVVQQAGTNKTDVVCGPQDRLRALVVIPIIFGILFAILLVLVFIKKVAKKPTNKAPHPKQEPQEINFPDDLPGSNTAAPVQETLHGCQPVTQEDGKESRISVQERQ

Binder | binding result (human DCIR) | binding result (human CD40)
B1 | binds | 
B2 |  | binds
